Experimental data reported in FireProtDB (doi:10.1006/jmbi.2000.3776).

Settings: Escherichia coli (strain K12); pH 7; 4 °C; GdnHCl; CD; PBS; whole UniProt chain shown

B1: Major outer membrane lipoprotein Lpp wild type, P69776 (protein)
chain: MKATKLVLGAVILGSTLLAGCSSNAKIDQLSSDVQTLNAKVDQLSNDVNAMRSDVQAAKDDAARANQRLDNMATKYRK
In the case of B1, the unfolding free energy is reported as 18.8 kcal/mol.
